For data set [1], the target named is T1, GzmB peptide substrate AIEFDSGc on PEG-coated iron oxide nanoparticles (GzmB-sensing synthetic biomarker).
T1 chain: AIEFDSGC

The subject of data set [2] is GzmB peptide substrate AIEFDSGc on PEG-coated iron oxide nanoparticles (GzmB-sensing synthetic biomarker). This is another data set of the same source.

Read-outs that look alike come from different tables or passages of the source.

B1: mouse plasmin (HaemTech) (protein)
chain: VYLSECKTGIGNGYRGTMSRTKSGVACQKWGATFPHVPNYSPSTHPNEGLEENYCRNPDNDEQGPWCYTTDPDKRYDYCNIPECEEECMYCSGEKYEGKISKTMSGLDCQAWDSQSPHAHGYIPAKFPSKNLKMNYCRNPDGEPRPWCFTTDPTKRWEYCDIPRCTTPPPPPSPTYQCLKGRGENYRGTVSVTVSGKTCQRWSEQTPHRHNRTPENFPCKNLEENYCRNPDGETAPWCYTTDSQLRWEYCEIPSCESSASPDQSDSSVPPEEQTPVVQECYQSDGQSYRGTSSTTITGKKCQSWAAMFPHRHSKTPENFPDAGLEMNYCRNPDGDKGPWCYTTDPSVRWEYCNLKRCSETGGSVVELPTVSQEPSGPSDSETDCMYGNGKDYRGKTAVTAAGTPCQGWAAQEPHRHSIFTPQTNPRAGLEKNYCRNPDGDVNGPWCYTTNPRKLYDYCDIPLCASASSFECGKPQVEPKKCPGRVVGGCVANPHSWPWQISLRTRFTGQHFCGGTLIAPEWVLTAAHCLEKSSRPEFYKVILGAHEEYIRGLDVQEISVAKLILEPNNRDIALLKLSRPATITDKVIPACLPSPNYMVADRTICYITGWGETQGTFGAGRLKEAQLPVIENKVCNRVEYLNNRVKSTELCAGQLAGGVDSCQGDSGGPLVCFEKDKYILQGVTSWGLGCARPNKPGVYVRVSRFVDWIEREMRNN
On to B1, for which the “fluorescent intensity (in vitro protease cleavage assay)” value (“fluorescent intensity” for short) in data set [1] was “Increases in fluorescent intensity were observed only in samples containing recombinant GzmB”.

B2: Clr (Sigma) (enzyme, UniProt P00736 18-705, looked up, species assumed)
Complement C1r subcomponent: SIPIPQKLFGEVTSPLFPKPYPNNFETTTVITVPTGYRVKLVFQQFDLEPSEGCFYDYVKISADKKSLGRFCGQLGSPLGNPPGKKEFMSQGNKMLLTFHTDFSNEENGTIMFYKGFLAYYQAVDLDECASRSKSGEEDPQPQCQHLCHNYVGGYFCSCRPGYELQEDTHSCQAECSSELYTEASGYISSLEYPRSYPPDLRCNYSIRVERGLTLHLKFLEPFDIDDHQQVHCPYDQLQIYANGKNIGEFCGKQRPPDLDTSSNAVDLLFFTDESGDSRGWKLRYTTEIIKCPQPKTLDEFTIIQNLQPQYQFRDYFIATCKQGYQLIEGNQVLHSFTAVCQDDGTWHRAMPRCKIKDCGQPRNLPNGDFRYTTTMGVNTYKARIQYYCHEPYYKMQTRAGSRESEQGVYTCTAQGIWKNEQKGEKIPRCLPVCGKPVNPVEQRQRIIGGQKAKMGNFPWQVFTNIHGRGGGALLGDRWILTAAHTLYPKEHEAQSNASLDVFLGHTNVEELMKLGNHPIRRVSVHPDYRQDESYNFEGDIALLELENSVTLGPNLLPICLPDNDTFYDLGLMGYVSGFGVMEEKIAHDLRFVRLPVANPQACENWLRGKNRMDVFSQNMFCAGHPSLKQDACQGDSGGVFAVRDPNTDRWVATGIVSWGIGCSRGYGFYTKVLNYVDWIKKEMEEED
Consider B2, for which, in data set [2], the “fluorescent intensity” value is recorded as “Increases in fluorescent intensity were observed only in samples containing recombinant GzmB”.

B3: murine Granzyme B (recombinant, Peprotech) (protein)
chain: IIGGHEVKPHSRPYMALLSIKDQQPEAICGFLIREDFVLTAAHCEGSIINVTLGAHNIKEQEKTQQVIPMVKCIPHPDYNPKTFSNDIMLLKLKSKAKRTRAVRPLNLPRRNVNVKPGDVCYVAGWGRMAPMGKYSNTLQEVELTVQKDRECESYFKNRYNKTNQICAGDPKTKRASFRGDSGGPLVCKKVAAGIVSYGYKDGSPPRAFTKVSSFLSWIKKTMKSS
Turning to B3, in data set [1], the “fluorescent intensity” value is given as “Increases in fluorescent intensity were observed only in samples containing recombinant GzmB”; the kcat/KM entry is recorded as “Fitted kcat/KM was 1.09×10^4 M^-1s^-1”; the “rate of cleavage (initial cleavage velocity, fluorescence)” value is listed as “the substrate that produced the highest rate of cleavage by recombinant GzmB”.

B4: Cls (Sigma) (enzyme, UniProt P09871 16-688, looked up, species assumed)
Complement C1s subcomponent: EPTMYGEILSPNYPQAYPSEVEKSWDIEVPEGYGIHLYFTHLDIELSENCAYDSVQIISGDTEEGRLCGQRSSNNPHSPIVEEFQVPYNKLQVIFKSDFSNEERFTGFAAYYVATDINECTDFVDVPCSHFCNNFIGGYFCSCPPEYFLHDDMKNCGVNCSGDVFTALIGEIASPNYPKPYPENSRCEYQIRLEKGFQVVVTLRREDFDVEAADSAGNCLDSLVFVAGDRQFGPYCGHGFPGPLNIETKSNALDIIFQTDLTGQKKGWKLRYHGDPMPCPKEDTPNSVWEPAKAKYVFRDVVQITCLDGFEVVEGRVGATSFYSTCQSNGKWSNSKLKCQPVDCGIPESIENGKVEDPESTLFGSVIRYTCEEPYYYMENGGGGEYHCAGNGSWVNEVLGPELPKCVPVCGVPREPFEEKQRIIGGSDADIKNFPWQVFFDNPWAGGALINEYWVLTAAHVVEGNREPTMYVGSTSVQTSRLAKSKMLTPEHVFIHPGWKLLEVPEGRTNFDNDIALVRLKDPVKMGPTVSPICLPGTSSDYNLMDGDLGLISGWGRTEKRDRAVRLKAARLPVAPLRKCKEVKVEKPTADAEAYVFTPNMICAGGEKGMDSCKGDSGGAFAVQDPNDKTKFYAAGLVSWGPQCGTYGLYTRVKNYVDWIMKTMQENSTPRED
As to B4, the “fluorescent intensity” value in data set [2] was “Increases in fluorescent intensity were observed only in samples containing recombinant GzmB”.

The values are drawn from patent US20190345534.
